Measured values from patent US20210147523A1 (TEIJIN PHARMA, published 2021).

B1: 18-0211B (antibody, IgG2b, V domains shown)
VH: AVQLVGSGGGLVQPGRSMKLSCEASGFTFSNHYMAWVRQAPTRGLEWVATISTGGGNTYYRDSVKGRFTISRDNTRSTLSLQMDSLRSEDTATYYCTRQDYTNYMGGFAYWGQGTLVTVSS
VL: QFVLTQPNSVSTNLGSTVKLSCTRSIGNIGNNYVNWYKQYEGRSPTTLIYRDDERPDGVPDRFSGSIDRSSNSALLTINSVQTEDGADYFCQSFSSGIFIFGGGTTLTVL
B2: 89-1207D (antibody, IgG2b, V domains shown)
VH: EVQLVGSGGGLVQPGRSMKLSCEASGFTFSNHYMAWVRQAPTKGLEWVATISTGGGNTYYRDSVKGRFTISRDNARSILSLQMDSLRSEDTATYYCARQDYSNYMGGFAYWGQGTLVTVSS
VL: QFVLTQPNSVSTNLGSTVKLSCTRSIGNIGNNYVNWYKQYEGRSPTTMIYRDDERPDGVPDRFSGSIDRSSNSALLTINNVQTEDEADYFCQSFSSGMFIFGGGTKLTVL
B3: 65-0810G (antibody, IgG2b, V domains shown)
VH: EVHLVESGGGLVQPGRSMKLSCTASGFTFNNYYMAWVRQAPTKGLEWVASISTGGGYTYYRDSVKGRFTISRDNTGNTLYLQMDSLRSEDTATYYCARCWELPYWGQGVMVTVSS
VL: QFVLTQPNSVSTNLGSTVKLSCRRSSGNIGNNYVNWYRQHEGRSPTTMIYRDDTRPDGVPNRFSGSIDRSSNSALLTINNVRPEDEAYYFCQSYSGSIYIFGGGTKLTVL
B4: 37-0511F (antibody, IgG2b, V domains shown)
VH: EVHLQQSGAALVRPRASVKLSCKVSGDSISRYYVHFVKQRPGQGLEWIGRIDPEDDTTKYSEKFKNRATLTADASSDTASLILSGLTSDDTATYFCSTLTGLDYWGQGVMVTVSS
VL: DIQMTQSPPVLSTSVGDRVTLRCKPSQNVHSKLDWYQQKHGEAPKLLIYYTHNLQTGIPSRFSGSGSGTDYTLTISSLQPEDVATYYCFQYYSGWTFGGGTKLEMKR
B5: 53-0707E (antibody, IgG2b, V domains shown)
VH: EVQLQQSGAELVRPRTSVKLSCKVSGDSITRYYVHFVKQRPGQGLEWIGRIDPEDDTTKYSEKFKKKATLTADASSNTAYLIFSGLTSEDTATYFCSTLTGLDYWGQGVMVTVSS
VL: DIQMTQSPPVLSTSVGDRVTLRCKASQNVHSKLDWYQQKHGEAPKLLIYYTHNLQTGIPSRFSGSGSGTDYTLTISSLQPEDVATYYCFQYYSGWTFGGGTKLEMKR

Tests used:
human SPNS2 [1] = target: T1, human SPNS2 (human, UniProt Q8IVW8 1-549); assay: Cell ELISA
T1 construct: S1P transporter; in Cell ELISA and S1P assays on Flp-in 293 cells that also express human SphK1; also called Spinster homolog 2; native type
T1 sequence: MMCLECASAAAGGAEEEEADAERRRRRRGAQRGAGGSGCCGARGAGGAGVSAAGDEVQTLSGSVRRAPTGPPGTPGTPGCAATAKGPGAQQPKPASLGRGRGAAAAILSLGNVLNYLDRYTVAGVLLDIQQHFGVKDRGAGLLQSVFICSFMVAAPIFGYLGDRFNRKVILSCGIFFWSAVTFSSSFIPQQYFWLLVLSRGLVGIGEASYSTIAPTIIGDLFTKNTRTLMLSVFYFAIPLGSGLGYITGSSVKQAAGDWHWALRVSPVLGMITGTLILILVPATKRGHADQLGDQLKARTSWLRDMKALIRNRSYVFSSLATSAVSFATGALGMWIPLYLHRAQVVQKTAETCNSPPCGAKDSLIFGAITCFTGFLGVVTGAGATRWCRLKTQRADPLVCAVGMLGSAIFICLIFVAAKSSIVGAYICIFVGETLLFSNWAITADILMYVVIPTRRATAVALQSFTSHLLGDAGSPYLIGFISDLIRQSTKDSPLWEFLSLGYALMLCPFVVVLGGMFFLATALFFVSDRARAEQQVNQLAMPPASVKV
Method: (§1) Human and mouse SPNS2 and human SphK1 double stable expression Flp-in 293 cells were added to a poly D lysine coat 96-well plate (Corning, 356461) in a density of 1×10⁵ cells/well and was cultivated overnight, and then the culture medium was removed. An anti-SPNS2 antibody solution was adjusted into 20 μg/mL using 0.2% FBS/3% BSA/PBS, and 0.2% FBS/3% BSA/PBS (60 μL) was added to the antibody diluted solution (20 μL) to prepare seven-step diluted solutions by four fold serial dilution. Each diluted solution of the anti-SPNS2 antibody was added in a volume of 30 μL/well, and reacted for about one hour at room temperature. The antibody solution was removed, and the residue was washed with PBS containing 0.05% Tween 20 (PBS-T) two times, and fixed for about ten minutes at room temperature using 10% buffered formalin (Mildform (Trade mark) 10NM, Wako). After washing with PBS-T one time, a 5000-fold diluted solution of anti-rat IgG antibody HRP conjugate (Southern Biotech, 3030-05) in 0.2% FBS/3% BSA/PBS was added to each well (30 μL), and reacted for about one hour at room temperature. After washing with PBS-T four times, a substrate (TMB; 3, 3′, 5, 5′-tetramethylbenzidin) was added to each well (100 μL) to initiate the reaction. After 20 minutes, 2N sulfuric acid was added to each well (100 μL), and absorbance at 450 nm and 550 nm was measured. […] Each antibody bound to human SPNS2 and mouse SPNS2.

mouse SPNS2 [2] = target: T2, mouse SPNS2 (mouse, UniProt Q91VM4 1-549); assay: Cell ELISA
T2 construct: on Flp-in 293 cells that also express human SphK1
T2 sequence: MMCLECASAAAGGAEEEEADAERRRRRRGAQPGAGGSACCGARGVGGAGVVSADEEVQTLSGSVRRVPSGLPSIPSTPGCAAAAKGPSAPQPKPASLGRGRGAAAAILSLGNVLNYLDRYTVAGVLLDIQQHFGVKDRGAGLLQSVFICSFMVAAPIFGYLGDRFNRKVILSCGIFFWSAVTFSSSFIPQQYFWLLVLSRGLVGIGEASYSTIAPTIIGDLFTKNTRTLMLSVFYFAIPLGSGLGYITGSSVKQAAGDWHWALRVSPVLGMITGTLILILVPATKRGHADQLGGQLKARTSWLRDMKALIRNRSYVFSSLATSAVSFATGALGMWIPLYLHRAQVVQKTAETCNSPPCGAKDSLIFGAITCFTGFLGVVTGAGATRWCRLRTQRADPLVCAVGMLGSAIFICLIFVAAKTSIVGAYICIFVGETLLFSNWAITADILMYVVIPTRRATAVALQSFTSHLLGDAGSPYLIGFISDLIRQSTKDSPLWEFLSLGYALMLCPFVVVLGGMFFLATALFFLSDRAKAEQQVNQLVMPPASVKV
Method: as §1

human SPNS2 [3] = target: T1, human SPNS2; assay: cell-based or functional assay
mouse SPNS2 [4] = target: T2, mouse SPNS2; assay: cell-based or functional assay
human SPNS2 [5] = target: T1, human SPNS2; assay: cell-based or functional assay; remark: listed apart in the source
mouse SPNS2 [6] = target: T2, mouse SPNS2; assay: cell-based or functional assay; remark: listed apart in the source

| Binder | Emax (human SPNS2 [1]) | pEC50 (human SPNS2 [1]) | Emax (mouse SPNS2 [2]) | pEC50 (mouse SPNS2 [2]) | pIC50, S1P transport inhibition (S1PR3 Ca2+ FLIPR bioassay) (human SPNS2 [3]) | pIC50, S1P transport inhibition (S1PR3 Ca2+ FLIPR bioassay) (mouse SPNS2 [4]) | pIC50, S1P transport inhibition (LC-MS/MS of S1P) (human SPNS2 [5]) | pIC50, S1P transport inhibition (LC-MS/MS of S1P) (mouse SPNS2 [6]) |
| --- | --- | --- | --- | --- | --- | --- | --- | --- |
| B1 | 1.72 absorbance | 8.59 pEC50 (M) | 1.61 absorbance | 8.37 pEC50 (M) | 7.6 pIC50 (M) | 7.9 pIC50 (M) | 7.9 pIC50 (M) | 8.1 pIC50 (M) |
| B2 | 2.03 absorbance | 7.97 pEC50 (M) | 1.85 absorbance | 7.72 pEC50 (M) | 7.2 pIC50 (M) | 7.6 pIC50 (M) | 7.6 pIC50 (M) | 7.8 pIC50 (M) |
| B3 | 1.7 absorbance | 8.36 pEC50 (M) | 1.54 absorbance | 8.15 pEC50 (M) | 7.2 pIC50 (M) | 7.6 pIC50 (M) | 7.4 pIC50 (M) | 7.8 pIC50 (M) |
| B4 | 1.35 absorbance | 8.2 pEC50 (M) | 1.29 absorbance | 8.01 pEC50 (M) | 7.3 pIC50 (M) | 7.8 pIC50 (M) | 7.7 pIC50 (M) | 7.8 pIC50 (M) |
| B5 | 1.62 absorbance | 7.87 pEC50 (M) | 1.43 absorbance | 7.82 pEC50 (M) | 7.1 pIC50 (M) | 7.6 pIC50 (M) | 7.3 pIC50 (M) | 7.6 pIC50 (M) |
